Measured values: paper PMC9271825
Values joined by “and” are separate entries in the source; they are usually repeats but may differ in a detail not shown here. Equal entries are not always repeated.

Molecular target: T1, Human Claudin-7 (Cldn7), wild type, His-tagged (human), O95471
T1 chain: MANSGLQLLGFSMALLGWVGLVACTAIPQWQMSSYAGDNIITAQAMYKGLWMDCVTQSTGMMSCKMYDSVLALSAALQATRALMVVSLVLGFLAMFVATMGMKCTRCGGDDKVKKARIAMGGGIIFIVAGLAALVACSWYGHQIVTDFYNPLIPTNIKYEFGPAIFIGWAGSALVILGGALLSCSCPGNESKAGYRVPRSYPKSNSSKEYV
Test: SDS-PAGE and Western blot of SDS-stable oligomers; purified Cldn7 (IMAC eluate) on 10% SDS-PAGE, detected with an anti-His-tag antibody
Settings: remark: other sources report otherwise

B1: Human Claudin-7 (Cldn7), wild type, His-tagged, O95471 1-211 (natural protein)
chain: T1 chain
stoichiometry N: 2 and 3
